pKi: −log10 of the molar value. Where two headings read alike, the source gives them in different places.

The target of assay [1] is Papain (E.C.3.4.22.2, from papaya latex) (papaya) (UniProt P00784).
The target is the same in assay [2]. The settings on record: natural protein.
The target is the same in assay [3]. This is another data set of the same source.
Assay [4] shares this target. This is another data set of the same source.
The target is the same in assay [5]. This is another data set of the same source.
Assay [6] shares this target. This is another data set of the same source.
The target is the same in assay [7]. In words: enzyme inhibition kinetics.
Assay [8] has the same target. The source holds these as a separate data set.
Assay [9] has the same target. This is another data set of the same source.
Assay [10] has the same target. The source holds these as a separate data set.
For assay [11] the target is unchanged. The source holds these as a separate data set.
For assay [12] the target is unchanged. This is another data set of the same source.
Assay [13] shares this target. This is another data set of the same source.
For assay [14] the target is unchanged. The settings on record: natural protein. The source holds these as a separate data set.
Assay [15] shares this target. The following applies: natural protein. The source holds these as a separate data set.

Sequence of Papain (E.C.3.4.22.2, from papaya latex) (papaya) (P00784 134-345): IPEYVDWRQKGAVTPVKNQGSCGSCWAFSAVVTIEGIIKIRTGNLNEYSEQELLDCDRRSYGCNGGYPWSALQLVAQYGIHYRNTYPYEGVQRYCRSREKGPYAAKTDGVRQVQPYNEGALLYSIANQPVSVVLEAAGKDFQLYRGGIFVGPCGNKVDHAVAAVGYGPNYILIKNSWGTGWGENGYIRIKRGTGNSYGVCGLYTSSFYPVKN

EgCYS: in assay [1], the pKi is 8.19.
Glycine soja GsCYS showed a pKi in [2] of 8.37.
Turning to JcCYS, in [3], the pKi was 8.15.
In turn, KsCYS gave a pKi in assay [4] of 8.12.
Turning to LjCYS, the negative-log Ki (pKi) in [5] is 7.87.
Take MsCYS: in assay [6], the pKi was 8.15.
Regarding “Physcomitrella patens C-tailed cystatin domain PpCYS (domain or fragment)”, in assay [7], the pKi was 8.92.
In assay [8], PsCYS showed a pKi of 8.32.
In assay [9], SiCYS showed a pKi of 8.26.
In assay [7], “SlCYS8 SE hybrid P-1 (first inhibitory loop of PpCYS)” came in with a Ki (papain), fold smaller than that of SlCYS8 of 7 fold.
“SlCYS8 SE hybrid P-N1 (N-terminal trunk and first inhibitory loop of PpCYS)” yielded a Ki (papain), fold smaller than that of SlCYS8 in [7] of 7 fold.
On to SlCYS9, for which the pKi in [10] is 7.88.
In the case of TcCYSB, the pKi in [11] was 8.25.
ThCYS had a negative logarithm of the Ki (pKi) in assay [12] of 7.85.
In the case of ZmCYSB, the pKi in assay [13] was 8.32.
Substance barley cystatin HaCYS3 had a pKi in assay [14] of 7.81.
In assay [15], cucumber cystatin CsCYS had a pKi of 7.84.
Turning to soybean GmCYSB (natural protein), the negative logarithm of the Ki (pKi) in assay [7] is 7.42.
On to “tomato multicystatin domain SlCYS7 (domain or fragment)”, for which, in assay [7], the pKi is 8.57.
